Measurements: US20140242093A1, “METHODS AND COMPOSITIONS FOR MODULATING THE INNATE IMMUNE RESPONSE AND/OR MYOGENESIS IN A MAMMALIAN SUBJECT” (FRED HUTCHINSON CANCER RESEARCH CENTER, priority 2011, published 2014)

Tested on: control human primary myoblasts
Assay: Expression microarray of primary myoblasts transduced with lentivirus carrying DUX4-fl, DUX4-s or GFP
Description: Primary human myoblasts were collected and cultured as previously described (Snider et al., 2010). Primary myoblasts were maintained at or below 70% confluency for proliferation. For differentiation, cells were allowed to reach 95-100% confluency in growth medium. Once confluency was reached, the cells were changed to differentiation medium (F10 media supplemented with 1% horse serum, 10 μg/mL insulin, and 10 μg/mL transferrin, penicillin/streptomycin) and maintained for 4 days. Human RD cells were grown in DMEM in 10% bovine calf serum (Hyclone) and penicillin/streptomycin. The primary myoblasts were transduced with lentivirus carrying DUX-fl, DUX4- or GFP (MOI=15).
Expression microarrays were performed on the transduced cells at 24 hours after transduction as follows. […] Samples were analyzed by Illumina Human Whole Genome microarrays. Probe intensities were corrected, normalized, and summarized by the Lumi package of Bioconductor (Du et al., 2008). Differentially expressed genes were identified by the LIMMA package of Bioconductor (Wettenhall and Smyth, 2004). Gene set enrichment analysis (GSEA) was performed using the Bioconductor GOstats package (Falcon and Gentleman, 2007).

[1] = 2-fold change and FDR<0.01 vs lenti-GFP, 24 hours after transduction
[2] = 3-fold criteria (>1.584 log2-fold change and FDR<0.01)

B1: DUX4-s: short splice form of DUX4 (SEQ ID NO:112), keeps the double-homeobox domains, lacks the C-terminal activation domain (protein, listed as Homo sapiens)
chain: MALPTPSDSTLPAEARGRGRRRRLVWTPSQSEALRACFERNPYPGIATRERLAQAIGIPEPRVQIWFQNERSRQLRQHRRESRPWPGRRGPPEGRRKRTAVTGSQTALLLRAFEKDRFPGIAAREELARETGLPESRIQIWFQNRRARHPGQGGRAPAQV
[1]
  number of genes with decreased expression: 45 genes
  number of genes with increased expression: 159 genes
[2]
  number of genes decreased: one
  number of genes increased: 37 genes
Refseq BQ437417, cultured human skeletal muscle
  BQ437417 (no symbol given) expression fc: −0.126
Refseq NM_000020.1
  fc of ACVRL1 (expression array): 0.06199
Refseq NM_000064.1
  fc of C3 (expression array): 0.2479
Refseq NM_000067.1
  CA2 expression fc: 0.1046
Refseq NM_000088.3
  fc of COL1A1 (expression array): −1.257
Refseq NM_000099.2
  CST3 fc: 0.1574
Refseq NM_000118.1
  ENG fc: 0.4927
Refseq NM_000156.4
  fc of GAMT (expression array): −0.3529
Refseq NM_000158.2
  GBE1 fc: 0.4818
Refseq NM_000202.3
  fc of IDS (expression array): 0.6655
Refseq NM_000217.2
  KCNA1 expression fc: 0.02842
Refseq NM_000231.1
  SGCG expression fc: 0.125
Refseq NM_000270.1
  NP expression fc: 0.2279
Refseq NM_000314.4
  fc of PTEN (expression array): −0.3029
Refseq NM_000341.2
  SLC3A1 expression fc: 0.003792
Refseq NM_000346.2
  SOX9 expression fc: −0.3086
Refseq NM_000430.2
  fc of PAFAH1B1 (expression array): −1.237
Refseq NM_000517.3
  HBA2 expression fc: 0.09333
Refseq NM_000518.4
  fc of HBB (expression array): 1.196
Refseq NM_000558.3
  HBA1 expression fc: 0.08066
Refseq NM_000584.2, cultured human skeletal muscle
  IL8 expression fc: 1.186
Refseq NM_000585.2
  fc of IL15 (expression array): −0.1029
Refseq NM_000593.5, cultured human skeletal muscle
  TAP1 expression fc: 0.6996
Refseq NM_000600.1
  fc of IL6 (expression array): 1.198
Refseq NM_000628.3
  IL10RB fc: −0.05056
Refseq NM_000690.2
  fc of ALDH2 (expression array): 0.2053
Refseq NM_000700.1
  fc of ANXA1 (expression array): 0.08537
Refseq NM_000775.2
  fc of CYP2J2 (expression array): 1.127
Refseq NM_000820.1
  fc of GAS6 (expression array): −0.3187
Refseq NM_000902.3
  fc of MME (expression array): −0.184
Refseq NM_000918.3
  P4HB fc: −0.1927
Refseq NM_000959.3
  PTGFR fc: 0.1496
Refseq NM_001067.2
  TOP2A fc: −0.6065
Refseq NM_001071.1
  TYMS fc: −0.09199
Refseq NM_001078.2, cultured human skeletal muscle
  VCAM1 expression fc: 0.6349
Refseq NM_001141.2
  ALOX15B fc: 0.4518
Refseq NM_001150.1, cultured human skeletal muscle
  ANPEP expression fc: 0.3635
Refseq NM_001179.3
  ART3 expression fc: 0.09073
Refseq NM_001218.3, cultured human skeletal muscle
  CA12 expression fc: 0.954
Refseq NM_001225.3
  fc of CASP4 (expression array): 0.6908
Refseq NM_001251.1
  CD68 fc: 1.175
Refseq NM_001288.4
  CLIC1 fc: 0.3089
Refseq NM_001338.3
  CXADR expression fc: −0.07005
Refseq NM_001386.4
  DPYSL2 fc: 0.2285
Refseq NM_001425.1
  EMP3 fc: −0.2096
Refseq NM_001459.2
  FLT3LG fc: 0.3873
Refseq NM_001511.1, cultured human skeletal muscle
  CXCL1 expression fc: 0.2028
Refseq NM_001523.1
  fc of HAS1 (expression array): 0.217
Refseq NM_001535.2
  PRMT2 fc: 0.07412
Refseq NM_001543.3
  NDST1 fc: −0.6912
Refseq NM_001547.4, cultured human skeletal muscle
  IFIT2 expression fc: 2.07
Refseq NM_001548.3, cultured human skeletal muscle
  IFIT1 expression fc: 0.7206
Refseq NM_001549.2, cultured human skeletal muscle
  IFIT3 expression fc: 1.806
Refseq NM_001550.2
  IFRD1 expression fc: −0.192
Refseq NM_001552.2, cultured human skeletal muscle
  IGFBP4 expression fc: 0.4048
Refseq NM_001565.2
  fc of CXCL10 (expression array): 3.235
Refseq NM_001605.2
  AARS fc: 0.2776
Refseq NM_001610.1
  ACP2 fc: 0.2225
Refseq NM_001656.3
  TRIM23 expression fc: 0.6303
Refseq NM_001669.2
  ARSD fc: −0.2052
Refseq NM_001698.1
  fc of AUH (expression array): 0.1604
Refseq NM_001710.4, cultured human skeletal muscle
  CFB expression fc: 0.6337
Refseq NM_001733.4, cultured human skeletal muscle
  C1R expression fc: 0.4933
Refseq NM_001753.3
  CAV1 fc: −0.1911
Refseq NM_001754.3
  fc of RUNX1 (expression array): −1.047
Refseq NM_001759.2
  fc of CCND2 (expression array): −0.5282
Refseq NM_001769.2
  CD9 expression fc: −0.004788
Refseq NM_001797.2
  CDH11 fc: 0.2419
Refseq NM_001945.1
  HBEGF expression fc: −0.07673
Refseq NM_001953.2, cultured human skeletal muscle
  ECGF1 expression fc: 0.6156
Refseq NM_001964.2
  EGR1 expression fc: 0.02651
Refseq NM_001987.4
  ETV6 fc: −0.05533
Refseq NM_001990.2
  EYA3 expression fc: −0.01672
Refseq NM_001995.2
  fc of ACSL1 (expression array): 0.147
Refseq NM_002005.2
  FES fc: −0.3314
Refseq NM_002032.2, cultured human skeletal muscle
  FTH1 expression fc: −0.4183
Refseq NM_002096.1
  GTF2F1 expression fc: 0.29
Refseq NM_002116.5
  HLA-A fc: 0.5577
Refseq NM_002133.1, cultured human skeletal muscle
  HMOX1 expression fc: 0.9838
Refseq NM_002145.3
  HOXB2 expression fc: −0.04069
Refseq NM_002155.3
  HSPA6 expression fc: 0.128
Refseq NM_002166.4
  ID2 expression fc: 0.2756
Refseq NM_002176.2
  fc of IFNB1 (expression array): 1.044
Refseq NM_002196.2
  INSM1 expression fc: 0.2306
Refseq NM_002198.1, cultured human skeletal muscle
  IRF1 expression fc: 0.3563
Refseq NM_002201.4, cultured human skeletal muscle
  ISG20 expression fc: 2.357
Refseq NM_002204.1
  fc of ITGA3 (expression array): 0.1268
Refseq NM_002229.2
  fc of JUNB (expression array): 0.5152
Refseq NM_002230.1
  JUP expression fc: −0.1057
Refseq NM_002266.2
  KPNA2 expression fc: −0.5075
Refseq NM_002293.2
  fc of LAMC1 (expression array): −1.061
Refseq NM_002340.3
  fc of LSS (expression array): −0.007301
Refseq NM_002342.1
  LTBR fc: 0.4061
Refseq NM_002345.3
  LUM fc: 0.3869
Refseq NM_002346.1, cultured human skeletal muscle
  LY6E expression fc: 0.2484
Refseq NM_002392.2
  fc of MDM2 (expression array): 1.078
Refseq NM_002462.2, cultured human skeletal muscle
  MX1 expression fc: 0.2624
Refseq NM_002463.1, cultured human skeletal muscle
  MX2 expression fc: 0.9576
Refseq NM_002469.1
  fc of MYF6 (expression array): −0.0236
Refseq NM_002478.4
  MYOD1 fc: −0.462
Refseq NM_002505.3
  NFYA expression fc: 0.9153
Refseq NM_002535.2, cultured human skeletal muscle
  OAS2 expression fc: 0.4553
Refseq NM_002539.1
  ODC1 expression fc: −0.2008
Refseq NM_002600.3
  PDE4B fc: 0.6757
Refseq NM_002627.3
  PFKP fc: 0.7759
Refseq NM_002648.2
  PIM1 expression fc: −0.6756
Refseq NM_002685.2
  EXOSC10 expression fc: 0.2771
Refseq NM_002687.3
  PNN expression fc: 0.04413
Refseq NM_002742.2
  PRKD1 fc: −0.6085
Refseq NM_002800.4, cultured human skeletal muscle
  PSMB9 expression fc: 0.9451
Refseq NM_002852.2, cultured human skeletal muscle
  PTX3 expression fc: 0.9442
Refseq NM_002862.3, cultured human skeletal muscle
  PYGB expression fc: −0.118
Refseq NM_002870.2
  fc of RAB13 (expression array): 0.3496
Refseq NM_002897.3
  fc of RBMS1 (expression array): 1.104
Refseq NM_002898.2
  fc of RBMS2 (expression array): 1.448
Refseq NM_002957.3
  RXRA fc: −0.3202
Refseq NM_002982.3, cultured human skeletal muscle
  CCL2 expression fc: 0.4355
Refseq NM_002985.2, cultured human skeletal muscle
  CCL5 expression fc: 1.889
Refseq NM_002993.2, cultured human skeletal muscle
  CXCL6 expression fc: 0.1728
Refseq NM_002994.3, cultured human skeletal muscle
  CXCL5 expression fc: 0.824
Refseq NM_003039.1, cultured human skeletal muscle
  SLC2A5 expression fc: 0.8141
Refseq NM_003059.2
  SLC22A4 fc: 0.3817
Refseq NM_003068.3, cultured human skeletal muscle
  SNAI2 expression fc: 0.2027
Refseq NM_003078.3
  fc of SMARCD3 (expression array): −0.3421
Refseq NM_003089.4
  SNRNP70 expression fc: 0.01776
Refseq NM_003107.2
  SOX4 expression fc: −0.2174
Refseq NM_003119.2
  SPG7 fc: −0.2796
Refseq NM_003135.1
  SRP19 expression fc: 0.227
Refseq NM_003162.2
  fc of STRN (expression array): 1.092
Refseq NM_003246.2
  THBS1 fc: −0.5659
Refseq NM_003335.2, cultured human skeletal muscle
  UBA7 expression fc: 0.5729
Refseq NM_003358.1
  fc of UGCG (expression array): 1.447
Refseq NM_003390.2
  WEE1 fc: 0.3325
Refseq NM_003392.3
  WNT5A fc: −0.3993
